In US20230122862A1:

Molecular target: CD23 coated on ELISA plates (UniProt P06734)
Test: ELISA, CD23 coated, pre-formed mAb:IgE complex added, anti-human IgG Fc-HRP detection

EC50: 0.0416 µg/mL
Substance: pre-formed UB-221:IgE complex (from UniProt P01854 1-428)
